The target of data set [1] is T1, mIL-2/MMP1cs/4x linker/mIL-2Rα + 6His (UniProt P04351).
T1 sequence: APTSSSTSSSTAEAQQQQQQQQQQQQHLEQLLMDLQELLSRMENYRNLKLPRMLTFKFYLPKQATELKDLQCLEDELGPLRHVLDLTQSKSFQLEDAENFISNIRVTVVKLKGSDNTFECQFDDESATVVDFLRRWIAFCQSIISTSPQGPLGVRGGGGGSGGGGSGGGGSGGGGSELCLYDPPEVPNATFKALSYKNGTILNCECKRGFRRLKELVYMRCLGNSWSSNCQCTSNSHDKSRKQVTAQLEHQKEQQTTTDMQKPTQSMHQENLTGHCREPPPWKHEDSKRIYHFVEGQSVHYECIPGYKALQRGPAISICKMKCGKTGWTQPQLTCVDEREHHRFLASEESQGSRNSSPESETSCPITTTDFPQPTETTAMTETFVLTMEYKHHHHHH

Data set [2] has as its target T2, mIL-2/MMP2cs/4x linker/mIL-2Rα + 6His (UniProt P04351).
T2 sequence: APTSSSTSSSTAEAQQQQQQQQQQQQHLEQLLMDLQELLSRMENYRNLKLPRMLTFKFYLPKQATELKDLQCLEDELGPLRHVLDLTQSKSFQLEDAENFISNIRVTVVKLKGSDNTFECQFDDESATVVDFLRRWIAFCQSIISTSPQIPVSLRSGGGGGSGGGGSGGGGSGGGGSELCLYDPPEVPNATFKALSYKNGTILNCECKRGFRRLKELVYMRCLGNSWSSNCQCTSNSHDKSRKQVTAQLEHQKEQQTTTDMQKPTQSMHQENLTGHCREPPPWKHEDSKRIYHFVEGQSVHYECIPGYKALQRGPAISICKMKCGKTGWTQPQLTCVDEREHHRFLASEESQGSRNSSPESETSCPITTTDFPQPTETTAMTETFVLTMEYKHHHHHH

Data set [3] addresses T3, mIL-2/MMP3-2cs/4x linker/mIL-2Rα + 6His (UniProt P04351).
T3 sequence: T2 sequence with I150V, V152L, R155Y

Data set [4] addresses T4, mIL-2/MMP4-1cs/4x linker/mIL-2Rα + 6His (UniProt P04351).
T4 sequence: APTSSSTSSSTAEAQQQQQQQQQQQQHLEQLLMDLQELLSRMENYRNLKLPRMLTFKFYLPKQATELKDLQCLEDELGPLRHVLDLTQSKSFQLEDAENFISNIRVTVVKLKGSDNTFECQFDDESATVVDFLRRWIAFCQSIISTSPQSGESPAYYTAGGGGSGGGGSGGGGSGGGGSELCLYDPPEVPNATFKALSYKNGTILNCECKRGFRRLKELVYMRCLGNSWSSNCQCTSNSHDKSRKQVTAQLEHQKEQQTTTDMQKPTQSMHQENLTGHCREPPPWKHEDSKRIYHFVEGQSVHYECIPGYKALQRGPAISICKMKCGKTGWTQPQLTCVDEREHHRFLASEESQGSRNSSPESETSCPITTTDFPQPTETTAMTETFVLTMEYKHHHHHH

The target of data set [5] is hIL-2/PSAcs/2x linker/scFv + 6His (UniProt P60568).
Chain of hIL-2/PSAcs/2x linker/scFv + 6His (P60568 whole entry, looked up): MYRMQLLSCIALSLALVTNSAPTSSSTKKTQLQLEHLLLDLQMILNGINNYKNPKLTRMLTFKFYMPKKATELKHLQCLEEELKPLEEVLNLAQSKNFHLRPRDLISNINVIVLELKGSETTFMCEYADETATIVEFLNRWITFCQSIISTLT
The target of data set [6] is mIL-2/PSAcs/2x linker/mIL-2Rα (UniProt P04351).
Data set [7] deals with mIL-2/PSAcs/4x linker/mIL-2Rα (UniProt P04351).
Data set [8] has as its target mouse IL-2/PSAcs/Mip-1α fusion protein (UniProt P04351).

We go through three substances from patent US20130089516.

Where a chain is given by its changes, count along the chain named.

Chain of matrix metalloproteinase 2 (MMP2), APMA-activated (R & D Systems) (P08253 110-660): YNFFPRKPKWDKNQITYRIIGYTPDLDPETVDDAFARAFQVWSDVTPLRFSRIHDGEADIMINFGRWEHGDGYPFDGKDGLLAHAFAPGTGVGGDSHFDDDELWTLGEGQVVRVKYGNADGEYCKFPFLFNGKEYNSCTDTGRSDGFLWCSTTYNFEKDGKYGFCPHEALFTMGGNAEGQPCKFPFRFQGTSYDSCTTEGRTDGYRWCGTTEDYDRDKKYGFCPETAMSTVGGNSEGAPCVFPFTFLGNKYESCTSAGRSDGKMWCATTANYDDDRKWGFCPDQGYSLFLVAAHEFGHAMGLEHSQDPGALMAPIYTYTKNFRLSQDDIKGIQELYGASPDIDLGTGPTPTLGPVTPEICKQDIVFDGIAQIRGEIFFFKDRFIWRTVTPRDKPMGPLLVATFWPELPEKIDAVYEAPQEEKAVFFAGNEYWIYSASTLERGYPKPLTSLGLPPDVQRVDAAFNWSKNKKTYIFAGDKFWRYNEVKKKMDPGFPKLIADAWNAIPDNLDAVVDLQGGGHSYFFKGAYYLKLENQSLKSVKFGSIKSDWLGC

On to “matrix metalloproteinase 9 (MMP9), APMA-activated (R & D Systems)”, for which the “cleavage by activated MMP9, immunoblot” value in data set [1] is “These cleavage sites were also capable of being cleaved using activated MMP2 and MMP9”; in data set [2], “These cleavage sites were also capable of being cleaved using activated MMP2 and MMP9”; in data set [3] it was “These cleavage sites were also capable of being cleaved using activated MMP2 and MMP9”. Also, the “cleavage by MMP9, anti-IL-2 immunoblot” value in data set [4] was “the fusion protein can be cleaved by MMP2 or MMP9”.

With “prostate specific antigen (PSA), purified (Cortex Biochem)”, the “cleavage by PSA, anti-human IL-2 immunoblot” value in data set [5] is on record as “the human IL-2/PSAcs/human scFv-2 fusion protein can be cleaved by PSA”. Moreover, the “cleavage by PSA, anti-IL-2 immunoblot” value is “Immunoblot analyses revealed that the fusion proteins could be cleaved by PSA” in data set [6], “Immunoblot analyses revealed that the fusion proteins could be cleaved by PSA” in data set [7] and “the IL-2/Mip1α fusion protein could be cleaved by PSA” in data set [8].

For “matrix metalloproteinase 2 (MMP2), APMA-activated (R & D Systems)”, the “cleavage by activated MMP2, immunoblot” value in data set [1] was “These cleavage sites were also capable of being cleaved using activated MMP2 and MMP9”; in data set [2] it was “These cleavage sites were also capable of being cleaved using activated MMP2 and MMP9”; in data set [3], “These cleavage sites were also capable of being cleaved using activated MMP2 and MMP9”. Further, the “cleavage by MMP2, anti-IL-2 immunoblot” value in data set [4] is recorded as “the fusion protein can be cleaved by MMP2 or MMP9”.
